Reference: article PMC5705603

Target: Segmentally labelled CheA (P1 domain and P2-5 part labelled differently and joined) (Escherichia coli) (UniProt P07363)
Experiment: NMR titration

UniProt P07363, sequence (P07363 whole entry, the tested form may be a part): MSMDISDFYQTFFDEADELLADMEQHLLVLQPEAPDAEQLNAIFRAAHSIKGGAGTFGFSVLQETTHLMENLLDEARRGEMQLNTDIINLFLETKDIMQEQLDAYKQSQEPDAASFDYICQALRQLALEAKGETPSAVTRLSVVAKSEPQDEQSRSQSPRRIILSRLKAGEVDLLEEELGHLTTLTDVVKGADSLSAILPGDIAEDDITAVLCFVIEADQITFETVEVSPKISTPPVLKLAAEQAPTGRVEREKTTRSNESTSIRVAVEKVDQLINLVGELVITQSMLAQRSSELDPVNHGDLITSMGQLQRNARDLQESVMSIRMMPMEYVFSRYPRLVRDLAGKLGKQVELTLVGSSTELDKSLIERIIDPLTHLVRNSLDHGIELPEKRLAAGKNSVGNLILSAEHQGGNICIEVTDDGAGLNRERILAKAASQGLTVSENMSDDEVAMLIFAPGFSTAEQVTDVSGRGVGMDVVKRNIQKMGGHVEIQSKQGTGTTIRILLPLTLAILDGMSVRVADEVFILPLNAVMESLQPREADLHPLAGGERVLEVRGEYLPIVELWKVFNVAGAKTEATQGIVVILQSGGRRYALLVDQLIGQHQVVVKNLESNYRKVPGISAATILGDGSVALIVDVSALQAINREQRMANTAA

Substance: CheY from Escherichia coli, wild type (from UniProt P0AE67 1-129) (natural protein)
- stoichiometry N (CheY per CheA): 2
